Laboratory results from patent US20120148565.

Legend:
[1] = target: GST fused WWP-1 (C. elegans HECT E3 ubiquitin ligase WWP-1, full length, wild type, N-terminal GST from pGEX-KG)
Chain of GST fused WWP-1 (C. elegans HECT E3 ubiquitin ligase WWP-1, full length, wild type, N-terminal GST from pGEX-KG) (chain, as listed by the source): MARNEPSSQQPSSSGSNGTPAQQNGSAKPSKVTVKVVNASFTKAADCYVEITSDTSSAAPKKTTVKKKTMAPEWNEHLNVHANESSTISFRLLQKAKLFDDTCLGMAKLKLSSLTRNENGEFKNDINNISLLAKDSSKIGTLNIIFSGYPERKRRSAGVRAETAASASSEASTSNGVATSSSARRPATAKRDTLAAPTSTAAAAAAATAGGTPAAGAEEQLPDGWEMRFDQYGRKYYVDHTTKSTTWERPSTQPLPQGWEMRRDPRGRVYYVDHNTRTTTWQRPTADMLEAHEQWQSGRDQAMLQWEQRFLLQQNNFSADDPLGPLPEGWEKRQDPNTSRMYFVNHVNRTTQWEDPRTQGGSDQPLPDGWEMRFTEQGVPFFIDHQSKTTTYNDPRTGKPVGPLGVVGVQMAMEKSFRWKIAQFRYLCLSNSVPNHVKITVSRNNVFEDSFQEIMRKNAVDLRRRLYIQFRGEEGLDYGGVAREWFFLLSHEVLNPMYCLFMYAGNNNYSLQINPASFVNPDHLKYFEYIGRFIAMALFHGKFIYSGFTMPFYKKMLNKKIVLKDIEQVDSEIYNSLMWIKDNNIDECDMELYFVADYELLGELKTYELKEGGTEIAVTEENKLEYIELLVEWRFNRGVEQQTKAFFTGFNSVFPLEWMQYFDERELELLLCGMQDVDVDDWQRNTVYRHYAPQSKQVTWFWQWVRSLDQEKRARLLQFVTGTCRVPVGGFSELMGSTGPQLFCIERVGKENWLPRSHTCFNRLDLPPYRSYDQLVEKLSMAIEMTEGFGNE

B1: recombinant UBC-18 (C. elegans E2 ubiquitin conjugating enzyme, GST tag removed by thrombin cleavage) (protein)
chain: MSATRRLQKELGDLKNCGVKAYENVECEETNLLKWTVLLIPDKEPYNKGAFKVGITFPVDYPFKPPKVAFETKIYHPNVDEEGKFCLPIVTAENWKPATKTEQVMMALLSLINEPEPSHPIRADVAEEFQKDHKKFMKTAEEHTRKHAEKRPE
Flag tagged ubiquitin
  in vitro ubiquitin conjugation reaction, SDS/PAGE with or without beta-mercaptoethanol: UBC-18 is indeed a functional E2 and is capable of forming a thiol ester bond with ubiquitin
[1]
  in vitro ubiquitination assay of WWP-1 with embryo extract from ubc-18(ku354) mutant worms, recombinant UBC-18 added back: ligase activity was restored with the addition of recombinant UBC-18
  in vitro ubiquitination assay using purified components (anti-Flag immunoblot): WWP-1 exhibited ubiquitin ligase activity in an E1 and UBC-18 dependent manner
